Measured values from paper PMC7037036, “C-Terminal Domain of the Human Zinc Transporter hZnT8 Is Structurally Indistinguishable from Its Disease Risk Variant (R325W)” (International Journal of Molecular Sciences, 2020).

Molecular target: the molecule itself
Test: SEC; Superdex 75, protein 10 mg/mL, 20 mM Tris pH 7.5, 150 mM NaCl, native conditions; calibrated with standard proteins; for the WT CTD the profile was similar with 3 mM beta-mercaptoethanol and the tetramer was kept in 8 M urea (some aggregates)

| Protein | stoichiometry N |
| --- | --- |
| C-terminal domain (CTD) of the human zinc transporter 8 (hZnT8), wild type (domain or fragment, UniProt Q8IWU4 281-369, looked up, human zinc transporter 8 (hZnT8, SLC30A8), C-terminal domain, Ser281-Asp369; Expressed as His-MBP-TEV-CTD from a pET28a-based vector; N-terminal tags removed with TEV protease; Measured mass 9.828 kDa; also called WT CTD; hZnT8 CTD; source: E. coli BL21 (DE3), purified (Ni-NTA, TEV cleavage, Hi-Trap Q anion exchange, repeated Ni-NTA, amylose resin); not shown: His tag, N-terminal, cleaved; MBP, …) SLNYSGVKELILAVDGVLSVHSLHIWSLTMNQVILSAHVATAASRDSQVVRREIAKALSKSFTMHSLTIQMESPVDQDPDCLFCEDPCD | 4 |
| C-terminal domain (CTD) of the human zinc transporter 8 (hZnT8), disease risk variant R325W (domain or fragment, UniProt Q8IWU4 281-369, looked up, human zinc transporter 8 (hZnT8, SLC30A8), C-terminal domain, Ser281-Asp369, natural variant R325W (SNP rs13266634); Made from the WT CTD plasmid by QuikChange site-directed mutagenesis; N-terminal tags removed with TEV protease; also called R325W CTD; CTD of the disease risk variant; source: E. coli BL21 (DE3), purified (Ni-NTA, TEV cleavage, Hi-Trap Q anion exchange, repeated Ni-NTA, amylose …)) SLNYSGVKELILAVDGVLSVHSLHIWSLTMNQVILSAHVATAASWDSQVVRREIAKALSKSFTMHSLTIQMESPVDQDPDCLFCEDPCD | 4 |
